Data on 1 substance can be found in PMC12282130.

The experiment has as its target PlMYB73-nLUC (Paeonia lactiflora).

cLUC-PlMYB70 (natural protein) came in with a Dual-LUC reporter in N. benthamiana leaves: activation of PlTPS1pro (LUC/REN) by PlMYB73 together with PlMYB70, against PlMYB70 alone of 3.45 fold.
